Test results as given in article PMC3678163.

Molecular target: poly-SUMO2 chains (3–8) (UniProt P61956)
Experiment: SPR

Sequence of UniProt P61956 (P61956 whole entry): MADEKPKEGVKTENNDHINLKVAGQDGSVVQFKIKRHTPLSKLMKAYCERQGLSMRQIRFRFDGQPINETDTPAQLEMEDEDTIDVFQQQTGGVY

- Kd: 15 µM
B1: RNF111(282–411) fragment, wild type (domain or fragment)
chain: SENHQNNPAVPSGSIDEDVVVIEASSTPQVTANEEINVTSTDSEVEIVTVGESYRSRSTLGHSRSHWSQGSSSHASRPQEPRNRSRISTVIQPLRQNAAEVVDLTVDEDEPTVVPTTSARMESQATSASI
